The results in this text go back to the supplement of paper PMC7877785.

The data set can be described thus: self-splicing fitness, log relative to wild type (ln ratio); higher = more splicing; Tetrahymena group I intron in knt gene, E. coli kanamycin selection, DiMSum; sequences stand for … in CUCUCU…GGAGGGAAAAGUUAUCAGGCAUGCACCUGGUAGCUAGUCUUUAAACCAAUAGAUUGCAUCGGUUUAAAAGGCAAGACCGUCAAAUUGCGGGAAAGGGGUCAACAGCCGUUCAGUACCAAGUCUCAGGGGAAACUUUGAGAUGGCCUUGCAAAGGGUAUGGUAAUAAGCUGACGGACAUGGUCCUAACCACGCAGCCAAGUCCUAAGUCAACAGAUCUUCUGUUGAUAUGGAUGCAGUUCACAGACUAAAUGUCGGUCGGGGAAGAUGUAUUCUUCUCAUAAGAUAUAGUCGGACCUCUCCUUAAUGGGAGCUAGCGGAUGAAGUGAUGCAACACUGGAGCCGCUGGGAACUAAUUUGUAUGCGAAAGUAUAUUGAUUAGUUUUGGAGUACUCGUGGUCG
In a few lines:
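DiMSum derived fitness as the error-weighted combination of fold changes across replicates, kanamycin versus no kanamycin, normalised to wild type. E. coli BL21(DE3) held the library, which randomised all eight P1ex-region intron nucleotides within the knt kanamycin-resistance gene on pET-22b(+). Six replicate transformations grew overnight at 37°C or 30°C on LB agar with or without 25 μg/mL kanamycin, also containing 100 μg/mL carbenicillin, 50 μM IPTG and 0.2% rhamnose, and pooled colonies were amplicon-sequenced on an Illumina HiSeq 2500.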

± gives the uncertainty stated by the source.

Consider UAGAAGCAAUAUUACGCGCA, for which the “self-splicing fitness (ln)” value is, setting by setting: (30 °C) -0.327 ± 0.15; (37 °C) 0.03 ± 0.18.
For UAGAAGCAAUAUUACGCGCU the same measures were -1.28 ± 0.16 and -1.85 ± 0.17.
Take UAGAAGCAAUAUUACGCUGA: the “self-splicing fitness (ln)” value (37 °C) is -1.74 ± 0.2.
As for UAGAAGCAAUAUUACGCUGG, the “self-splicing fitness (ln)” value runs as follows: (30 °C) -1.38 ± 0.16; (37 °C) -0.436 ± 0.18.
The like results for UAGAAGCAAUAUUACGGACA were, in that order, -0.547 ± 0.11 and -0.0716 ± 0.13.
In the case of UAGAAGCAAUAUUACGGACG, the “self-splicing fitness (ln)” value is -0.286 ± 0.13 (30 °C) and 0.291 ± 0.16 (37 °C).
On to UAGAAGCAAUAUUACGGAGC, for which the “self-splicing fitness (ln)” value (37 °C) is -3.93 ± 0.46.
Regarding UAGAAGCAAUAUUACGGAUG, the “self-splicing fitness (ln)” value reads like this: (30 °C) -1.41 ± 0.099; (37 °C) -0.694 ± 0.12.
In the case of UAGAAGCAAUAUUACGGCUC, the “self-splicing fitness (ln)” value was -2.6 ± 0.3 (30 °C) and -0.946 ± 0.3 (37 °C).
With UAGAAGCAAUAUUACGGGAG, the “self-splicing fitness (ln)” value runs as follows: (30 °C) -1.97 ± 0.14; (37 °C) -1.39 ± 0.12.
As to UAGAAGCAAUAUUACGGGGA, the “self-splicing fitness (ln)” value was -2.39 ± 0.14 (30 °C) and -0.988 ± 0.12 (37 °C).
UAGAAGCAAUAUUACGGGUU: the “self-splicing fitness (ln)” value is -4.54 ± 0.34 (30 °C) and -1.87 ± 0.2 (37 °C).
On to UAGAAGCAAUAUUACGGUAC, for which the “self-splicing fitness (ln)” value (30 °C) is -3.25 ± 0.37.
For the sequence UAGAAGCAAUAUUACGGUGG, the “self-splicing fitness (ln)” value (30 °C) is -1.84 ± 0.12 and the “self-splicing fitness (ln)” value (37 °C) was -1.2 ± 0.13.
Consider UAGAAGCAAUAUUACGUCAC, for which, for the setting “30 °C”, the “self-splicing fitness (ln)” value is -2.92 ± 0.35.
For the sequence UAGAAGCAAUAUUACGUGAU, the “self-splicing fitness (ln)” value reads like this: (30 °C) -2.73 ± 0.11; (37 °C) -1.84 ± 0.11.
As for UAGAAGCAAUAUUACGUGCG, the “self-splicing fitness (ln)” value was -0.462 ± 0.082 (30 °C) and -0.125 ± 0.098 (37 °C).
Turning to UAGAAGCAAUAUUACGUGGA, the “self-splicing fitness (ln)” value was -2.1 ± 0.13 (30 °C) and -1.92 ± 0.16 (37 °C).
Take UAGCAGCAAUAUUACGAAGG: the “self-splicing fitness (ln)” value is, setting by setting: (30 °C) -2.85 ± 0.12; (37 °C) -2.21 ± 0.19.
Regarding UAGCAGCAAUAUUACGACGU, the “self-splicing fitness (ln)” value was -1.14 ± 0.073 (30 °C) and -0.658 ± 0.1 (37 °C).
For UAGCAGCAAUAUUACGAGUG the same measures were -1.02 ± 0.075 and -0.131 ± 0.075.
With UAGCAGCAAUAUUACGAGUU, the “self-splicing fitness (ln)” value was -3.47 ± 0.15 (30 °C) and -1.98 ± 0.14 (37 °C).
For UAGCAGCAAUAUUACGAUAG the same measures were -1.78 ± 0.073 and -1.46 ± 0.1.
For UAGCAGCAAUAUUACGCAGG the same measures were -3.01 ± 0.25 and -2.14 ± 0.25.
As for UAGCAGCAAUAUUACGCAUG, the “self-splicing fitness (ln)” value by setting is: (30 °C) -0.793 ± 0.096; (37 °C) -1.17 ± 0.14.
For UAGCAGCAAUAUUACGCCCG the same measures were -0.432 ± 0.18 and -0.57 ± 0.21.
As to UAGCAGCAAUAUUACGGAGU, the “self-splicing fitness (ln)” value by setting is: (30 °C) -3.64 ± 0.18; (37 °C) -2.78 ± 0.15.
Consider UAGCAGCAAUAUUACGGCAC, for which the “self-splicing fitness (ln)” value (30 °C) was -2.14 ± 0.18 and the “self-splicing fitness (ln)” value (37 °C) is 0.167 ± 0.21.
For UAGCAGCAAUAUUACGGCGU, the “self-splicing fitness (ln)” value (30 °C) is -0.605 ± 0.12 and the “self-splicing fitness (ln)” value (37 °C) amounted to 0.0421 ± 0.13.
Take UAGCAGCAAUAUUACGGGCG: the “self-splicing fitness (ln)” value runs as follows: (30 °C) -0.609 ± 0.065; (37 °C) -0.24 ± 0.087.
With UAGCAGCAAUAUUACGGGUC, for the setting “37 °C”, the “self-splicing fitness (ln)” value was -3.65 ± 0.42.
Regarding UAGCAGCAAUAUUACGUAUC, the “self-splicing fitness (ln)” value is, setting by setting: (30 °C) -3.16 ± 0.16; (37 °C) -2.87 ± 0.25.
For UAGCAGCAAUAUUACGUCAC the same measures were -4.49 ± 0.42 and -2.46 ± 0.33.
The like results for UAGCAGCAAUAUUACGUCAG were, in that order, -0.628 ± 0.1 and -1.13 ± 0.12.
The like results for UAGCAGCAAUAUUACGUCGG were, in that order, -0.706 ± 0.1 and -0.878 ± 0.13.
As for UAGCAGCAAUAUUACGUCUG, the “self-splicing fitness (ln)” value (30 °C) is -1.32 ± 0.14 and the “self-splicing fitness (ln)” value (37 °C) was -1.6 ± 0.14.
On to UAGCAGCAAUAUUACGUGCA, for which the “self-splicing fitness (ln)” value runs as follows: (30 °C) -0.411 ± 0.082; (37 °C) -0.287 ± 0.086.
On to UAGCAGCAAUAUUACGUUGA, for which the “self-splicing fitness (ln)” value (30 °C) was -2.46 ± 0.13 and the “self-splicing fitness (ln)” value (37 °C) was -2.07 ± 0.12.
On to UAGGAGCAAUAUUACGAAGU, for which the “self-splicing fitness (ln)” value (37 °C) is -2.35 ± 0.43.
With UAGGAGCAAUAUUACGAGAU, under “37 °C”, the “self-splicing fitness (ln)” value is -1.95 ± 0.36.
In the case of UAGGAGCAAUAUUACGAGGG, the “self-splicing fitness (ln)” value is -3.6 ± 0.42 (30 °C) and -2.35 ± 0.33 (37 °C).
Take UAGGAGCAAUAUUACGAUUC: where the note is “30 °C”, the “self-splicing fitness (ln)” value is -2.08 ± 0.37.
As for UAGGAGCAAUAUUACGAUUG, the “self-splicing fitness (ln)” value reads like this: (30 °C) -1.85 ± 0.15; (37 °C) -0.617 ± 0.16.
Consider UAGGAGCAAUAUUACGCACG, for which the “self-splicing fitness (ln)” value reads like this: (30 °C) -2.12 ± 0.32; (37 °C) -0.819 ± 0.25.
Consider UAGGAGCAAUAUUACGCAUG, for which the “self-splicing fitness (ln)” value reads like this: (30 °C) -1.64 ± 0.2; (37 °C) 0.135 ± 0.15.
As for UAGGAGCAAUAUUACGCCGG, the “self-splicing fitness (ln)” value (30 °C) is -2.07 ± 0.22 and the “self-splicing fitness (ln)” value (37 °C) was -1.57 ± 0.3.
Turning to UAGGAGCAAUAUUACGCUAG, the “self-splicing fitness (ln)” value by setting is: (30 °C) -3.03 ± 0.19; (37 °C) -0.83 ± 0.19.
In the case of UAGGAGCAAUAUUACGCUGC, the “self-splicing fitness (ln)” value by setting is: (30 °C) -3.05 ± 0.41; (37 °C) -1.03 ± 0.42.
As to UAGGAGCAAUAUUACGGGAC, the “self-splicing fitness (ln)” value reads like this: (30 °C) -3.63 ± 0.4; (37 °C) -2.85 ± 0.47.
On to UAGGAGCAAUAUUACGGUCC, for which the “self-splicing fitness (ln)” value is -3.93 ± 0.37 (30 °C) and -0.78 ± 0.26 (37 °C).
The like results for UAGGAGCAAUAUUACGGUGG were, in that order, -2.79 ± 0.21 and -0.497 ± 0.17.
With UAGGAGCAAUAUUACGUACG, the “self-splicing fitness (ln)” value is, setting by setting: (30 °C) -1.28 ± 0.17; (37 °C) -0.737 ± 0.3.
UAGGAGCAAUAUUACGUCUC: the “self-splicing fitness (ln)” value (30 °C) is -2.51 ± 0.49.
Take UAGGAGCAAUAUUACGUGUA: the “self-splicing fitness (ln)” value is -2.02 ± 0.13 (30 °C) and -1.63 ± 0.12 (37 °C).
Turning to UAGGAGCAAUAUUACGUGUC, the “self-splicing fitness (ln)” value was -3.27 ± 0.34 (30 °C) and -1.82 ± 0.27 (37 °C).
As to UAGGAGCAAUAUUACGUUCC, the “self-splicing fitness (ln)” value (30 °C) was -2.97 ± 0.4.
Consider UAGUAGCAAUAUUACGAAAG, for which the “self-splicing fitness (ln)” value (37 °C) was -1.97 ± 0.26.
Take UAGUAGCAAUAUUACGACCA: the “self-splicing fitness (ln)” value (30 °C) is -0.4 ± 0.15 and the “self-splicing fitness (ln)” value (37 °C) turned out to be 0.221 ± 0.17.
Take UAGUAGCAAUAUUACGAGCC: the “self-splicing fitness (ln)” value (30 °C) is -2.98 ± 0.47 and the “self-splicing fitness (ln)” value (37 °C) was -2.31 ± 0.42.
Turning to UAGUAGCAAUAUUACGAUCC, the “self-splicing fitness (ln)” value was -3.16 ± 0.45 (30 °C) and -2.22 ± 0.4 (37 °C).
For UAGUAGCAAUAUUACGAUGU, the “self-splicing fitness (ln)” value (37 °C) is -2.22 ± 0.32.
Consider UAGUAGCAAUAUUACGCAAU, for which the “self-splicing fitness (ln)” value (37 °C) was -2.45 ± 0.35.
For UAGUAGCAAUAUUACGCACG, the “self-splicing fitness (ln)” value (30 °C) is -0.964 ± 0.15 and the “self-splicing fitness (ln)” value (37 °C) was -0.244 ± 0.21.
Take UAGUAGCAAUAUUACGCCUU: the “self-splicing fitness (ln)” value was -2.11 ± 0.12 (30 °C) and -0.556 ± 0.11 (37 °C).
